Measurements taken from patent US20250042992A1 (University of California, published 2025).

Experiments:
[1] = molecular target: T1, recombinant fusion protein of human DLK1 extracellular domain (ECD) and monomeric immunoglobulin Fc domain … (human, UniProt P80370 24-303); experiment: Octet384 binding kinetics using recombinant protein DLK1 ECD-mFc, row Ka (1/Ms)
T1 construct: also called human DLK1 ECD-mFc fusion protein; not shown: monomeric immunoglobulin Fc domain (mFc)
T1 sequence: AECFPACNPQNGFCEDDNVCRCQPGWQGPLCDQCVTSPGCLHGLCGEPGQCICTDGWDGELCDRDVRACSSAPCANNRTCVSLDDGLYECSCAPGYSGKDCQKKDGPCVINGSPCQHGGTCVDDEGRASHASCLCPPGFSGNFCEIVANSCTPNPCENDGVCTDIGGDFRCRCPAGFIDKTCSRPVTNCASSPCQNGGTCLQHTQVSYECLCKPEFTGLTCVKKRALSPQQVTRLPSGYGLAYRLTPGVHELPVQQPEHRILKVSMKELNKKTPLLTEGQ

[2] = molecular target: T1, recombinant fusion protein of human …; experiment: ELISA with human DLK1 ECD-mFc fusion protein
[3] = molecular target: T2, human DLK1 long form (isoform 1, DLK1-FL) fused to mGFP, overexpressed on HEK293T cells (human, UniProt P80370 24-383); experiment: KinExA on cells, row HEK293 DLK1-mGFP G05 Cells
T2 construct: also called HEK293T DLK1 mGFP G06 (long form); DLK-FL; not shown: mGFP fluorescent protein fused to DLK1
T2 sequence: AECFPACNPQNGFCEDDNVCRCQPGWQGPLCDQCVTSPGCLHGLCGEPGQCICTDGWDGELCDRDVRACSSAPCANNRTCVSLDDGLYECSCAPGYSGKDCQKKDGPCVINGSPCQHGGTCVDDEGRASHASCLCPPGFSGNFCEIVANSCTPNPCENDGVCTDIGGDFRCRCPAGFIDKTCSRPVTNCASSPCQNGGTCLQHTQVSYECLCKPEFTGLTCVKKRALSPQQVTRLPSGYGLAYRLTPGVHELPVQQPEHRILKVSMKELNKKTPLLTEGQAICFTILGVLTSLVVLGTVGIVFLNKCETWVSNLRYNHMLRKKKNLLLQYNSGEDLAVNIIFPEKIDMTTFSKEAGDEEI

[4] = molecular target: T3, human DLK1 short form (isoform 2, DLK1-MB) fused to mGFP, expressed on HEK293T cells (human, UniProt P80370 24-383); experiment: cell-based or functional assay
T3 sequence: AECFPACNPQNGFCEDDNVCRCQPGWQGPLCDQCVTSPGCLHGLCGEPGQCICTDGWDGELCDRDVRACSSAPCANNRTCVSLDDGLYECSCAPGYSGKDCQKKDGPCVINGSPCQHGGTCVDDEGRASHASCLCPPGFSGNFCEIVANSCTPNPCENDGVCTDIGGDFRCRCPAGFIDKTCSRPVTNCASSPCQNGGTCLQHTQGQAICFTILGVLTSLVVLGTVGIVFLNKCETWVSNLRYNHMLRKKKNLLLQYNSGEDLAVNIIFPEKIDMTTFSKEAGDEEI

[5] = molecular target: T1, recombinant fusion protein of human …; experiment: Octet384 binding kinetics using recombinant protein DLK1 ECD-mFc
[6] = molecular target: T4, monkey DLK1 fused to mGFP, overexpressed on HEK293T cells (monkey (crab-eating macaque), UniProt A0A2K5TMQ6 24-383); experiment: KinExA on cells, row HEK293T Monkey DLK1mGFP mass
T4 construct: whole, on cells; also called crab-eating macaque DLK1; not shown: mGFP fluorescent protein fused to DLK1
T4 sequence: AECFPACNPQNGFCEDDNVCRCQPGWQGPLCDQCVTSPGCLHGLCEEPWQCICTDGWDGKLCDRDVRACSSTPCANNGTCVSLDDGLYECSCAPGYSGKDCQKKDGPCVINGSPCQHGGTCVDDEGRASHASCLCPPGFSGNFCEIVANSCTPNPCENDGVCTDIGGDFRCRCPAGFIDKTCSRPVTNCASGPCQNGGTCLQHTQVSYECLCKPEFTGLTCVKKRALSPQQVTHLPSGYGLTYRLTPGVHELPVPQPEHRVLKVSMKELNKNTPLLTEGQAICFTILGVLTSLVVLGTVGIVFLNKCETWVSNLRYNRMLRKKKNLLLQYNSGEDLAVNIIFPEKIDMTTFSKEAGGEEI

[7] = molecular target: T1, recombinant fusion protein of human …; experiment: Octet384 binding kinetics using recombinant protein DLK1 ECD-mFc, row Kdis (1/s)
[8] = molecular target: T1, recombinant fusion protein of human …; experiment: ELISA on recombinant DLK1 ECD-mFc
[9] = molecular target: T2, human DLK1 long form (isoform 1, …); experiment: KinExA on cells, block Cross Reactivity to Three Tox Models - KD by KinExA (nM), row HEK293T Human DLK1mGFP G05
[10] = molecular target: T2, human DLK1 long form (isoform 1, …); experiment: KinExA on HEK293T DLK1mGFP Human Clone G06 cells detached by Versene; Error% 5.90; 95% CI not defined; equilibrium curves 400pM, 50nM
[11] = molecular target: T1, recombinant fusion protein of human …; experiment: affinity on recombinant DLK1 ECD-mFc; method not stated

Row | kon [1] | EC50 [2] | Kd [3] | ADCC reporter assay: NFAT activation (Lucia luciferase) in Jurkat-Lucia NFAT-CD16 effector cells, EC50 [4] | Kd [5] | Kd [6] | koff [7] | EC50 [8] | Kd [10] | fold lower binding affinity (ELISA EC50) than 04-0561-f1 and 04-0562-h10 [2] | Kd [11] | Binder | Kd [9]
1 | 48200 M⁻¹ s⁻¹ | ~0.5 nM | 1.11 nM | ~0.101 µg/mL | 0.0186 nM | 2.19 nM | 0.000898 s⁻¹ | 0.684 nM |  |  |  | humanized anti-DLK1 antibody 04-0561-F1 (IgG1) (antibody, V domains shown) VH: QVQLQESGPGLVKPSETLSLTCTVSGFSLSIYSVHWVRQPPGKGLEWIGLIWGGGSTDYNPSLKSRVTISKDTSKNQVSLKLSSVTAADTAVYYCARKEGNYLWFAYWGQGTLVTVSS VL: DIVMTQSPDSLAVSLGERVTMNCKSSQSLLQSSNQKNYLAWYQQKPGQPPKLLVYFASTRESGVPDRFSGSGSGTDFTLTISSVQAEDVAVYYCQQHYSIPLTFGQGTKLEIKR | 1.11 nM
2 | 15500 M⁻¹ s⁻¹ |  | 5.34 nM |  | 0.298 nM | 9.89 nM | 0.00462 s⁻¹ | 10.3 nM | 5.34 nM | ~20 fold | ~0.3 nM | humanized anti-DLK1 antibody 04-0547-h2 (IgG1) (antibody, V domains shown, human kappa (P01834) and human IgG1 (P01857) constant regions) VH: EVQLVESGGGLVQPGGSLRLSCAASGFSISDYYMAWVRQAPGKGLEWVANINYDGTNTYYADSVKGRFTISRDNSKNTLYLQMNSLRAEDTAVYYCVRSYYYYGMEYWGQGTTVTVSS VL: DIQMTQSPSSLSASVGDRVTITCRASHDVSTAVAWYQQKPGKAPKLLIYSASYRYTGVPSRFSGSGSGTDFTLTISSLQPEDFATYYCQQHYRIPLTFGQGTKLEIK | 5.34 nM
